This note sets out measurements from US5607849.

Read-outs that look alike come from different tables or passages of the source.

Experiment [1] addresses dimethylated casein.
In experiment [2] the target is dimethylated casein. This is another data set of the same source.
Experiment [3] concerns the target dimethylated casein. The source holds these as a separate data set.

With “Alaska pollack (Theragra chalcogramma) liver-derived transglutaminase, natural enzyme purified from liver (S-Sepharose fraction)”, in experiment [1], the relative activity (fluorescence intensity due to bonding of monodansylcadaverine with dimethylated casein) (units/mg protein) was 591.

“Pagrus major liver-derived transglutaminase, natural enzyme purified from liver (heparin fraction)”: the relative activity (fluorescence intensity due to bonding of monodansylcadaverine with dimethylated casein) (units/mg protein) in experiment [2] came to 807.

“Pagrus major transglutaminase, recombinant (expressed from the cDNA of pSLTG5 by plasmids pIL6TG1 and pTTG2-22 in E. coli HB101 and pYSTG1 in Saccharomyces cerevisiae INVSC2) (enzyme)” returned a Relative fluorescence intensity (bonding of monodansyl cadaverine with dimethylated casein) (relative fluorescence intensity) in experiment [3] of 910.
